# According to PMC4353338, “Molecular annotation of ketol-acid reductoisomerases from Streptomyces reveals a novel amino acid biosynthesis interlock mediated by enzyme promiscuity” (Microbial Biotechnology, 2014):
# Where a chain is given by its changes, count along the chain named.
# B1: Cgl (Corynebacterium glutamicum ATCC 13032) (protein)
# chain: MAIELLYDADADLSLIQGRKVAIVGYGSQGHAHSQNLRDSGVEVVIGLREGSKSAEKAKEAGFEVKTTAEAAAWADVIMLLAPDTSQAEIFTNDIEPNLNAGDALLFGHGLNIHFDLIKPADDIIVGMVAPKGPGHLVRRQFVDGKGVPCLIAVDQDPTGTAQALTLSYAAAIGGARAGVIPTTFEAETVTDLFGEQAVLCGGTEELVKVGFEVLTEAGYEPEMAYFEVLHELKLIVDLMFEGGISNMNYSVSDTAEFGGYLSGPRVIDADTKSRMKDILTDIQDGTFTKRLIANVENGNTELEGLRASYNNHPIEETGAKLRDLMSWVKVDARAETA
# notes: pET28a, expressed in E. coli BL21 Star (DE3), Ni-NTA purified (His-tagged)
# B2: Sgr (Streptomyces griseus subsp. griseus NBRC 13350) (protein)
# chain: MAELFYDDDADLSIIQGRKVAVLGYGSQGHAHALSLRDSGVDVRVGLHEGSKSKAKAEEQGLRVVTPSEAAAEADVIMILVPDPIQAQVYEESVKDNLKDGDALFFGHGLNIRFGFIKPPAGVDVCMVAPKGPGHLVRRQYEEGRGVPCIVAVEQDASGKGLELALSYAKGIGGTRAGVIKTTFTEETETDLFGEQAVLCGGTAALVKAGFETLTEAGYQPEIAYFECLHELKLIVDLMYEGGLEKMRWSISETAEWGDYVTGPRIITDATKAEMKKVLAEIQDGTFAKNWMAEYHNGLPKYNEYKKADSDHLLETTGRELRKLMSWVNDEEA
# notes: as for B1
# B3: Eco (Escherichia coli K-12) (protein)
# chain: ANYFNTLNLRQQLAQLGKCRFMGRDEFADGASYLQGKKVVIVGCGAQGLNQGLNMRDSGLDISYALRKEAIAEKRASWRKATENGFKVGTYEELIPQADLVINLTPDKQHSDVVRTVQPLMKDGAALGYSHGFNIVEVGEQIRKDITVVMVAPKCPGTEVREEYKRGFGVPTLIAVHPENDPKGEGMAIAKAWAAATGGHRAGVLESSFVAEVKSDLMGEQTILCGMLQAGSLLCFDKLVEEGTDPAYAEKLIQFGWETITEALKQGGITLMMDRLSNPAKLRAYALSEQLKEIMAPLFQKHMDDIISGEFSSGMMADWANDDKKLLTWREETGKTAFETAPQYEGKIGEQEYFDKGVLMIAMVKAGVELAFETMVDSGIIEESAYYESLHELPLIANTIARKRLYEMNVVISDTAEYGNYLFSYACVPLLKPFMAELQPGDLGKAIPEGAVDNGQLRDVNEAIRSHAIEQVGKKLRGYMTDMKRIAVAG
# notes: as for B1
# B4: Spr (Streptomyces pristinaespiralis ATCC 25486) (protein)
# chain: MAELFYDDDADLSIIQNRKVAVIGYGSQGHAHALSLRDSGVDVRVGLHEGSKSKAKAEEQGLRVVTPAEAAAEADVIMILIPDPIQAQVYEESVKGNLKDGDALFFAHGFNVRFGFIKAPAGVDVALVAPKGPGHLVRRQYEEGRGVPAIAAVEQDATGNAFALALSYAKAIGGTRAGVIKTTFTEETETDLFGEQAVLCGGASALVKAGFETLTEAGYQPEIAYFECLHELKLIVDLMYEGGLEKMRWSVSETAEWGDYITGPRIITDQTKAEMKKVLAEIQDGTFAKNWMDEYHGGLKKYDEYKTQDSEHLLETTGKELRKLMSWVDNDEA
# notes: as for B1
# B5: Sav (Streptomyces avermitilis MA-4680 = NBRC 14893) (protein)
# chain: MAELFYDADADLSIIQGRKVAVIGYGSQGHAHALSLRDSGVDVRVGLHEGSKSKAKAEEQGLRVVTPSEAAAEADVIMILVPDPIQAQVYEESIKDNLKDGDALFFGHGLNIRFGFIKPPAGVDVCMVAPKGPGHLVRRQYEEGRGVPCIAAVEQDATGNGFALALSYAKGIGGTRAGVIKTTFTEETETDLFGEQAVLCGGTAALVKAGFETLTEAGYQPEIAYFECLHELKLIVDLMYEGGLEKMRWSISETAEWGDYVTGPRIITDATKAEMKKVLAEIQDGTFAQAWMDEYHGGLKKYNEYKTQDENHLLETTGKELRKLMSWVNDEEA
# notes: as for B1
# B6: Svi2 (Streptomyces viridifaciens) (protein)
# chain: MAELFYDADADLSIIQGRKVAVIGYGSQGHAHALSLRDSGVDVRVGLHEGSKSKAKAEEQGLRVVTPAEAAAEADVIMILVPDPIQAQVYEESVKDNLKDGDALFFGHGFNIRFGFIKPPAGVDVCMVAPKGPGHLVRRQYEEGRGVPCIAAVEQDASGNAFALALSYAKGIGGTRAGVIKTTFTEETETDLFGEQAVLCGGTSALVKAGFETLVEAGYQPEIAYFECLHELKLIVDLMYEGGLEKMRWSVSETAEWGDYVTGPRIITDATKAEMKKVLAEIQDGTFAKNWMDEYHGGLKKYDDYKEQDSEHLLETTGKQLRKLMSWVNEETM
# notes: commercially synthesized gene; pET28a, expressed in E. coli BL21 Star (DE3), Ni-NTA purified (His-tagged)
# B7: Sco1 (Streptomyces coelicolor A3(2)) (protein)
# chain: MAELFYDADADLSIIQGRKVAVIGYGSQGHAHALSLRDSGVDVRVGLHEGSKSKAKAEEQGLRVVPVAEAAAEADVIMILVPDPIQAEVYEKDIKDNLKDGDALFFGHGLNIRYGFIKPPAGVDVCMVAPKGPGHLVRRQYEEGRGVPCIAAVEQDATGNAFALALSYAKGIGGTRAGVIKTTFTEETETDLFGEQAVLCGGTAALVKAGFETLTEAGYQPEIAYFECLHELKLIVDLMYEGGLEKMRWSISETAEWGDYVTGPRIITDATKAEMKKVLAEIQDGTFAKNWMDEYHGGLKKYNEYKKQDSEHLLETTGKELRKLMSWVDEEA
# notes: as for B1
# B8: Sco2 (Streptomyces coelicolor A3(2)) (protein)
# chain: B7 chain with I117V, I150L, A151V, K181R, C200A, T203V, A204T, A270V, K276R
# notes: as for B1
# B9: Sli1 (Streptomyces lividans TK24) (protein)
# chain: B7 chain
# notes: as for B1
# B10: Sam (Streptomyces ambofaciens) (protein)
# chain: B7 chain with P66S, V67P, A68S, E88Q, K92E, D93H, Y114F, T158S, K307Q, E320Q
# notes: as for B1
# Tests used:
# Test in all cases: purified protein
# Conditions in all cases: 0.1 M Tris-HCl pH 8, 10 mM MgCl2, 0.22 mM NADP(H), 25 C
# purified protein [1] = substrate: CC(C)(O)C(=O)C(=O)O; type: biochemical, Corynebacterium glutamicum
# purified protein [2] = substrate: CC(=O)[C@](C)(O)C(=O)O; type: biochemical, Streptomyces griseus
# purified protein [3] = substrate: CC[C@](O)(C(C)=O)C(=O)O; type: biochemical, Streptomyces griseus
# purified protein [4] = substrate: CC(C)(O)C(=O)C(=O)O; type: biochemical, Escherichia coli
# purified protein [5] = substrate: CC(=O)[C@](C)(O)C(=O)O; type: biochemical, Streptomyces pristinaespiralis
# purified protein [6] = substrate: CC(C)(O)C(=O)C(=O)O; type: biochemical, Streptomyces pristinaespiralis
# purified protein [7] = substrate: CC(=O)[C@](C)(O)C(=O)O; type: biochemical, Streptomyces avermitilis
# purified protein [8] = substrate: CC[C@](O)(C(C)=O)C(=O)O; type: biochemical, Streptomyces avermitilis
# purified protein [9] = substrate: CC(=O)[C@](C)(O)C(=O)O; type: biochemical, Streptomyces viridifaciens
# purified protein [10] = substrate: CC(C)(O)C(=O)C(=O)O; type: biochemical, Streptomyces viridifaciens
# purified protein [11] = substrate: CC(=O)[C@](C)(O)C(=O)O; type: biochemical, Streptomyces coelicolor
# purified protein [12] = substrate: CC(C)(O)C(=O)C(=O)O; type: biochemical, Streptomyces coelicolor
# purified protein [13] = substrate: CC(=O)[C@](C)(O)C(=O)O; type: biochemical, Streptomyces lividans
# purified protein [14] = substrate: CC(C)(O)C(=O)C(=O)O; type: biochemical, Streptomyces lividans
# purified protein [15] = substrate: CC(=O)[C@](C)(O)C(=O)O; type: biochemical, Streptomyces ambofaciens
# purified protein [16] = substrate: CC(C)(O)C(=O)C(=O)O; type: biochemical, Streptomyces ambofaciens
protein,measurement,setting,value
B1,Km,purified protein [1],2300 ± 250 µM
same,kcat,purified protein [1],0.9 ± 0.08 s⁻¹
B2,Km,purified protein [2],1200 ± 700 µM
same,kcat,purified protein [2],0.42 ± 0.04 s⁻¹
same,Km,purified protein [3],2500 ± 300 µM
same,kcat,purified protein [3],0.44 ± 0.03 s⁻¹
B3,Km,purified protein [4],260 ± 30 µM
same,kcat,purified protein [4],3.1 ± 0.25 s⁻¹
B4,Km,purified protein [5],9000 ± 700 µM
same,kcat,purified protein [5],3.6 ± 0.3 s⁻¹
same,Km,purified protein [6],8600 ± 900 µM
same,kcat,purified protein [6],5.2 ± 0.6 s⁻¹
B5,Km,purified protein [7],800 ± 90 µM
same,kcat,purified protein [7],0.24 ± 0.2 s⁻¹
same,Km,purified protein [8],2600 ± 300 µM
same,kcat,purified protein [8],0.4 ± 0.04 s⁻¹
B6,Km,purified protein [9],1800 ± 900 µM
same,kcat,purified protein [9],2 ± 0.07 s⁻¹
same,Km,purified protein [10],5000 ± 4800 µM
same,kcat,purified protein [10],2.5 ± 0.3 s⁻¹
B7,Km,purified protein [11],1600 ± 200 µM
same,kcat,purified protein [11],1.1 ± 0.2 s⁻¹
same,Km,purified protein [12],3000 ± 200 µM
same,kcat,purified protein [12],2.2 ± 0.15 s⁻¹
B8,Km,purified protein [11],12000 ± 800 µM
same,kcat,purified protein [11],0.24 ± 0.01 s⁻¹
same,Km,purified protein [12],10000 ± 110 µM
same,kcat,purified protein [12],0.3 ± 0.04 s⁻¹
B9,Km,purified protein [13],1200 ± 70 µM
same,kcat,purified protein [13],0.7 ± 0.59 s⁻¹
same,Km,purified protein [14],4000 ± 500 µM
same,kcat,purified protein [14],2.8 ± 0.3 s⁻¹
B10,Km,purified protein [15],2000 ± 150 µM
same,kcat,purified protein [15],0.63 ± 0.5 s⁻¹
same,Km,purified protein [16],4000 ± 300 µM
same,kcat,purified protein [16],0.8 ± 0.1 s⁻¹
